Measured values as given in article PMC11003968 (Scientific Reports, 2024).

Biological target: IsdB Y165A, site-directed mutant of Staphylococcus aureus IsdB (Staphylococcus aureus, UniProt Q2FZF0 41-613, Y165A)
Assay: ELISA
Details: both partners purified

B1: Human hemoglobin A (oxyhemoglobin) (complex)
chain 1: not shown
chain 2: not shown
Question: With B1 as the binder, how does the Kd read?
Answer: Its Kd is 80 ± 11 µM.
